Assay results from patent US20240190991A1, “COMBINATION THERAPY WITH AN ANTI-CA19-9 ANTIBODY AND FOLFIRINOX IN THE TREATMENT OF CANCER” (BioNTech SE, priority 2021, published 2024).

System: locally-advanced or metastatic pancreatic ductal adenocarcinoma (PDAC)
Test: Clinical study of MVT-5873 as monotherapy or combined with FOLFIRINOX in pancreatic cancer patients
Type: in vivo, human
Settings: Group C patients; MVT 5873 0.5 mg/kg in combination with mFOLFIRINOX; one, two or six cycles of therapy
Method: A clinical study is performed comparing the therapeutic effect of the use of the MVT-5873 monoclonal antibody (5B1 monoclonal antibody) as a monotherapy or in combination with FOLFIRINOX in the treatment of pancreatic cancer, in patients with locally-advanced or metastatic pancreatic ductal adenocarcinoma (PDAC). Patients having other CA19-9-positive malignancies may also be included in the study.
The patients will be subdivided into the following groups: • Group A: A Q4 week monotherapy schedule employing a single dose of MVT 5873 administered 7 days prior to Cycle 1 Day 1 • Group B: A Q2 week monotherapy schedule employing a single dose of MVT 5873 administered 7 days prior to Cycle 1 Day 1 • Group C: A Q2 week schedule in combination with mFOLFIRINOX mFOLFIRINOX is a dose amount of FOLFIRINOX, in which FOLFIRINOX is administered at a dose of 65 mg/m^2 oxaliplatin, 400 mg/m^2 leucovorin, 150 mg/m^2 irinotecan, and 1200 mg/m^2 5-fluorouracil.
In certain groups, the patients, after completing the combination therapy will be administered the antibody having the ability to bind CA 19-9 as a monotherapy.
The administration schedule for Group C is depicted in FIG. 1.
A number of patients in Group C have been administered MVT 5873 at 0.5 mg/kg in combination with mFOLFIRINOX (65 mg/m^2 oxaliplatin, 400 mg/m^2 leucovorin, 150 mg/m^2 irinotecan, and 1200 mg/m^2 5-fluorouracil). […]

“MVT 5873: fully human IgG1 monoclonal antibody that targets sialyl Lewis A (sLe^a), an epitope on CA19-9; VH and VL of SEQ ID NO: 2 and 4” was tested, and the dose limiting toxicities was “No dose limiting toxicities”.
